The values that follow come from patent US11819553B2, “Glypican 3 antibodies and conjugates thereof” (Seagen Inc., priority 2018, dated 2023).

In the experiment the target is T1, hGPC3 (Homo sapiens, UniProt P51654).
T1 construct: endogenous in cells
The experiment is described as follows: Competition binding assay on GPC3-positive cells (flow cytometry, AlexaFluor-488 labeled mGPC3-1). The settings on record: Table 6; competition with labeled mGPC3-1 on GPC3-positive cells; read-out: hGPC3 Binding of hGPC3-1 Antibody Variants EC50. Here is the method:
One hundred thousand GPC3-positive cells were transferred to 96-well plates and incubated for 1 hour on ice with 3-5 nM AlexaFluor-488 labeled mGPC3-1 and increasing concentrations (from 10 pM to 2 uM) of unlabeled humanized or murine GPC3-1 mAb. Cells were centrifuged, washed 3 times with PBS, and resuspended in 125 μL of a PBS+2% FBS solution. Fluorescence was analyzed using a flow cytometer, and the percent of saturated fluorescent signal was used to determine percent labeled GPC3-1 mAb bound. The EC50 was extrapolated by fitting the data to a sigmoidal dose-response curve with variable slope.
On the technique in general: A flow cytometer gives signals particle by particle.

T1 sequence (P51654 25-554): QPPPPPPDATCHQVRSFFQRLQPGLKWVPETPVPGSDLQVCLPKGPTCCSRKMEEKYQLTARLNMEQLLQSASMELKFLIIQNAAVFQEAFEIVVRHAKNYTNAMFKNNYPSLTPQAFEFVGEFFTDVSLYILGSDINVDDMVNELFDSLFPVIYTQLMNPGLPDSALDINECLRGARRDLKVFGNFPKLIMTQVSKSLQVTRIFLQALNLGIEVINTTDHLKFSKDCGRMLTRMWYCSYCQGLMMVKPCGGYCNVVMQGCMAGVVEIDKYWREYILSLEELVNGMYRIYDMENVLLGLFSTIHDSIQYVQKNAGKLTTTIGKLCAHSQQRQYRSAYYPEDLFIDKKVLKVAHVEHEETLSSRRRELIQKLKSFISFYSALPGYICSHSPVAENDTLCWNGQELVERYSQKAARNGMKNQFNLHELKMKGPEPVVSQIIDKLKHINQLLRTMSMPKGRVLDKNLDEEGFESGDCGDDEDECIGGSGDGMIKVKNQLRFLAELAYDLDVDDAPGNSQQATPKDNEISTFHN

B1: hGPC3-1 HALA: humanized GPC3-1 antibody with heavy chain variable region vHA and light chain variable region vLA (antibody, V domains shown)
VH: QVQLVQSGAEVKKPGASVKVSCKASGYTFTDYEMHWVRQAPGQGLEWIGGIDPETGGTAYNQKFKGRATLTADTSTSTAYMELRSLRSDDTAVYYCARYYSFAYWGQGTLVTVSS
VL: DVVMTQSPLSLPVTLGQPASISCRSSQSIVHSNGNTYLQWFQQRPGQSPRRLIYKVSNRFSGVPDRFSGSGSGTDFTLKISRVEAEDVGVYYCFQVSHVPYTFGQGTKLEIK
Regarding B1, the EC50 was more than 300 nM.

As usually defined, the EC50 is the concentration giving half of the maximal effect.
